The values below come from publication PMC12144868, “New Transferrin Receptor‐Targeting Conjugate Effectively Delivers DNA to Mouse Brain”.

This series has as its target human transferrin receptor (hTfR), extracellular domain (Homo sapiens, UniProt P02786 89-760). Nature of the series: SPR; ka 6.30E+06; kd 1.38E-04 s-1; SPR Biacore T100, SA chip, biotinylated aptamer heated to 65°C then cooled to 37°C before immobilization; five hTfR concentrations at 10 uL/min; 1:1 model with. The following applies: protein: commercial; tags: N-terminal tag (His implied by Ni-NTA; tag name cut in the text); chain copies: 2; label: biotin. (In general: SPR reads the build-up and loss of mass on a sensor chip optically.)

Sequence of human transferrin receptor (hTfR), extracellular domain (P02786 89-760): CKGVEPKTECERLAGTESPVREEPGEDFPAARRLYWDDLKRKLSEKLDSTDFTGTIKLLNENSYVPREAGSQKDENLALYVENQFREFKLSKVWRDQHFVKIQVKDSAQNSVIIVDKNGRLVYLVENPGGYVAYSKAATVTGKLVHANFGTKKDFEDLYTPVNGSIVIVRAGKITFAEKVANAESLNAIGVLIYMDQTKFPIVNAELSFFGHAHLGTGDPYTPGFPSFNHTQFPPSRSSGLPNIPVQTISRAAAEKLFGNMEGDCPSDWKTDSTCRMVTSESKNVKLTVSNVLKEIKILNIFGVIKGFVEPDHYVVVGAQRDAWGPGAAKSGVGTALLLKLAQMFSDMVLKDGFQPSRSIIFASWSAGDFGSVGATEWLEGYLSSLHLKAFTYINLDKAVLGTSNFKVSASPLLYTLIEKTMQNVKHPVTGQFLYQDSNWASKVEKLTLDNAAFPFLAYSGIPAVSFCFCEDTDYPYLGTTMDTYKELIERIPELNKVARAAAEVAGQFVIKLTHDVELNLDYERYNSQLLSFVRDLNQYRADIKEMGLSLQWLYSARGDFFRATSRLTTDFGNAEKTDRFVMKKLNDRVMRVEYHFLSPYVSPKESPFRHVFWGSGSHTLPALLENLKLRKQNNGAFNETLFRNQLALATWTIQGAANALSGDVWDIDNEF

B1: tTfR aptamer 22-nt (truncated) (XNA)
RNA: UUUAUUCACAUUUUUGAAUUGA
modifications: all U and C 2'F-2'-deoxy (i2FU, i2FC); A and G ribo
The term Kd denotes the constant that tells how readily two partners part at equilibrium. A higher Kd goes with a looser complex. For the molecule B1, the dissociation constant (Kd) was 0.022 nM.
